Where “and” joins values, the source holds several entries; their conditions need not be identical. Equal entries are not always repeated. Where two headings read alike, the source gives them in different places. Each block holds one substance with its values, some of them ahead of it.
Assays:
[1] = molecular target: MtaLon-M217A (Meiothermus taiwanensis); experiment: cryo-EM structure; MtaLon-M217A 1 μM (as hexamer) with 10 μM casein and 5 mM ADP, 3 h
[2] = molecular target: fluorescein isothiocyanate (FITC)-labeled casein (UniProt P02662); experiment: fluorescence polarisation; MtaLon samples serially diluted (5 µM to 0.01 µM) mixed with 1.25 µM FITC-casein, 1 mM ADP, 4 °C, 3 h; triplicates
Sequence of UniProt P02662 (P02662 16-214): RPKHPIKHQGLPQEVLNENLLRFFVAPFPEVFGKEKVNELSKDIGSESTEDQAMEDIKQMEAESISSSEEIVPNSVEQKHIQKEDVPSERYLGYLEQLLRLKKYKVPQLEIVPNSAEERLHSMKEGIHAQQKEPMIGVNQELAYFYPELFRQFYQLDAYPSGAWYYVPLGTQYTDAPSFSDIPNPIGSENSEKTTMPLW

[3] = molecular target: MtaLon-S678A (Meiothermus taiwanensis); experiment: cryo-EM structure; MtaLon-S678A 1 μM (as hexamer) with 10 μM casein and 5 mM ADP, overnight
[4] = molecular target: MtaLon-S678A (Meiothermus taiwanensis); experiment: as above; remark: listed apart in the source
[5] = molecular target: MtaLon-Y224S (Meiothermus taiwanensis); experiment: cryo-EM structure; 10 μM ΔN-E613K and 5 mM ADP incubated with 1 μM MtaLon-Y224S at 4 °C for 1 h, mixture purified on Superose 6 Increase; 5+1 heteromeric complex
[6] = molecular target: MtaLon-Y224S (Meiothermus taiwanensis); experiment: cryo-EM structure; MtaLon-Y224S 1 μM (as hexamer) incubated with 5 mM ATPγS overnight
[7] = molecular target: MtaLon-Y397A/S678A (Meiothermus taiwanensis); experiment: cryo-EM structure; MtaLon-Y397A/S678A 1 μM (as hexamer) with 10 μM casein and 5 mM ATPγS, 3 h
[8] = molecular target: Meiothermus taiwanensis LonA, wild type, full length (Meiothermus taiwanensis); experiment: cryo-EM structure; wild-type MtaLon 1 μM (as hexamer) without any nucleotide (MtaLon-Apo)
[9] = molecular target: Meiothermus taiwanensis LonA, wild type, full length (Meiothermus taiwanensis); experiment: cryo-EM structure; wild-type MtaLon 1 μM (as hexamer) incubated with 5 mM ADP overnight; single-particle reconstruction without symmetry
[10] = molecular target: Meiothermus taiwanensis LonA, wild type, full length (Meiothermus taiwanensis); experiment: cryo-EM structure; wild-type MtaLon 1 μM (as hexamer) without any nucleotide (MtaLon-Apo); remark: listed apart in the source
[11] = molecular target: Meiothermus taiwanensis LonA, wild type, full length (Meiothermus taiwanensis); experiment: cryo-EM structure; wild-type MtaLon 1 μM (as hexamer) incubated with 5 mM ADP overnight; single-particle reconstruction without symmetry; remark: listed apart in the source

Substance: MtaLon-Y224S (enzyme)
stoichiometry N [5]: 5 and 6
stoichiometry N [6]: 5 and 6

Substance: MtaLon-Y397A/S678A (enzyme)
stoichiometry N [7]: 5 and 6

Substance: Meiothermus taiwanensis LonA, wild type, full length (enzyme)
stoichiometry N [8]: 3 and 4
stoichiometry N [9]: 3 and 4
stoichiometry N [10]: 5 and 6
stoichiometry N [11]: 5 and 6

Continued, values first:

stoichiometry N [1]: 5 and 6
Substance: MtaLon-M217A (enzyme)

Kd [2]: 1380 nM
stoichiometry N [3]: 6
stoichiometry N [4]: 5
Substance: MtaLon-S678A (enzyme)

From paper PMC10643698
